In patent US20100004431A1 (Xencor, published 2010):
Like-named read-outs stand apart in the source and are kept apart here. Each block holds one binder with its values, some of them ahead of it.

Key:
[1] = target: T1, CD25 (R&D systems cat. #223-2A/CF) (UniProt P01589 22-213, limits assumed); test: SPR (Biacore), single variant in H1L1 background
T1 construct: Bought soluble protein
T1 sequence (looked up): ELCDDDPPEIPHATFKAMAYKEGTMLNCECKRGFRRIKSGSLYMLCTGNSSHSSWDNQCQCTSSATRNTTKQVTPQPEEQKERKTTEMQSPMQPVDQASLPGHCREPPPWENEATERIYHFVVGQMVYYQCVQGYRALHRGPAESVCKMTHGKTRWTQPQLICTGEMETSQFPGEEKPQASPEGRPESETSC
Description: (§1) Binding was measured by injection of two-fold serial dilutions of CD25 (0 nM to 50 nM; R&D systems) in buffer at 25° C. with a flow rate of 25-30 μL/min for 2 min followed by a dissociation phase of 4-5 min. Association rates (kₒₙ) and dissociation rates (koff) were calculated using a simple one-to-one Langmuir binding model (BIAcore Evaluation Software version 3.2). The equilibrium dissociation constant (Kd) was calculated as the ratio of koff/kₒₙ).

[2] = target: T1, CD25 (R&D systems cat. #223-2A/CF); test: Biacore (SPR); antibody captured on Protein A, CD25 injected
Description: as §1

VEGF [3] = target: T2, VEGF (UniProt P15692-4 27-191, limits assumed); test: SPR (Biacore), VEGF on CM5 chip, Fab injected
Description: (§2) For kinetic analysis of anti-VEGF antibodies, VEGF was coupled to an activated CM5 biosensor chip using standard NHS-EDC chemistry by injecting 200 nM VEGF at a flow rate of 2 μL/min for 10 min. […] Association rates (kₒₙ) and dissociation rates (koff) were calculated using a simple one-to-one Langmuir binding model (BIAcore Evaluation Software version 3.2). The equilibrium dissociation constant (Kd) was calculated as the ratio of koff/kₒₙ.

VEGF [4] = target: T2, VEGF; test: Biacore (SPR); Fab injected over immobilized VEGF
Description: as §2

VEGF [5] = target: T2, VEGF; test: Biacore (SPR); Fab injected over immobilized VEGF; remark: listed apart in the source
Description: as §2

TNFα [6] = target: T3, TNFα (UniProt P01375 77-233); test: SPR (Biacore), TNFα on CM5 chip, Fab injected
Description: (§3) For kinetic analysis of anti-TNFα antibodies, TNFα was coupled to an activated CM5 biosensor chip using standard NHS-EDC chemistry by injecting 200 nM TNFα at a flow rate of 2 μL/min for 10 min. […] For subsequent cycles, the chip was regenerated using pH4.0 acetate buffer. Association rates (kₒₙ) and dissociation rates (koff) were calculated using a simple one-to-one Langmuir binding model (BIAcore Evaluation Software version 3.2). The equilibrium dissociation constant (Kd) was calculated as the ratio of koff/kₒₙ.

TNFα [7] = target: T3, TNFα; test: Biacore (SPR); Fab injected over immobilized TNFα
Description: as §3

TNFα [8] = target: T3, TNFα; test: SPR (Biacore), TNFα on CM5 chip, Fab injected; mean of two runs ± SD
Description: as §3

[9] = target: T1, CD25 (R&D systems cat. #223-2A/CF); test: SPR (Biacore), antibody captured on Protein A, CD25 injected; separate runs
Description: as §1

[10] = target: T1, CD25 (R&D systems cat. #223-2A/CF); test: Biacore (SPR); antibody captured on Protein A, CD25 injected; remark: listed apart in the source
Description: as §1

[11] = target: T1, CD25 (R&D systems cat. #223-2A/CF); test: Biacore blocking assay; antibody injected over CD25 coupled to a CM5 chip, then 100 nM rh-IL2; blocked ligand IL-2
Description: The chip was regenerated after each cycle by injection of glycine buffer @ pH 1.5 for 30 sec at 10 μL/min.

T2 sequence (P15692 other isoform, or with tags, fused parts or gaps limits assumed): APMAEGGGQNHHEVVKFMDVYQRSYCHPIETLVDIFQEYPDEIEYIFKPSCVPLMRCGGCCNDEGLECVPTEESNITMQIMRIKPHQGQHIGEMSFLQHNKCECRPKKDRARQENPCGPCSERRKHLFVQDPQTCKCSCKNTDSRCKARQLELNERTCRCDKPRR
T3 sequence (P01375 77-233 limits assumed): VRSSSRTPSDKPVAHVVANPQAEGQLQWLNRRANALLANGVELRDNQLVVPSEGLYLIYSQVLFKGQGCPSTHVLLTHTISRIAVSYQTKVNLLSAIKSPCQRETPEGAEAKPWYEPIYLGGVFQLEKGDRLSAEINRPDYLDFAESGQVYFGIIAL

B3: Anti-TNFα H1.103L1.33 (Fab, V domains shown)
VH: EVQLVESGGGLVQPGGSLKLSCAASGFIFSNHWMNWVRQASGKGLEWVGEIRSKANNYATHYAASVKGRFTISRDDSKNTAYLQMNSLKTEDTAVYYCSRNYYGSTYDYWGQGTLVTVSS
VL: EIVLTQSPDFQSVTPKEKVTITCRASQFIGSSLHWYQQKPDQSPKLLIKYASESFSGVPSRFSGSGSGTDFTLTINSLEAEDAATYYCQQSHSWPFTFGSGTKLEIK
notes: Fab format; It has thirteen more mutations than anti-TNFα H1L1; also called anti-TNF H1.103L1.33
fold difference in affinity against the chimeric antibody anti-TNFα H0L0 (TNFα [6]): ≤ 3 fold
Fold affinity change relative to H0L0 (TNFα [7]): -1.3 fold
Kd (TNFα [8]): 3.1 nM
koff (TNFα [8]): 0.00092 s⁻¹
kon (TNFα [8]): 292000 M⁻¹ s⁻¹

B4: anti-CD25 H0L0 (antibody, V domains shown)
VH: QVQLQQSGAELAKPGASVKMSCKASGYTFTSYRMHWVKQRPGQGLEWIGYINPSTGYTEYNQKFKDKATLTADKSSSTAYMQLSSLTFEDSAVYYCARGGGVFDYWGQGTTLTVSS
VL: QIVLTQSPAIMSASPGEKVTITCSASSSISYMHWFQQKPGTSPKLWIYTTSNLASGVPARFSGSGSGTSYSLTISRMEAEDAATYYCHQRSTYPLTFGSGTKLELK
notes: Chimeric form of the anti-TAC antibody, in IgG1 format; also called chimeric anti-CD25 H0L0; anti-TAC H0L0
Kd [9]: 0.09 to 0.3 nM
Kd [2]: 0.09 nM
koff [2]: 0.00013 s⁻¹
kon [2]: 1.6e+06 M⁻¹ s⁻¹
Kd [10]: 0.26 nM
koff [10]: 0.00018 s⁻¹
kon [10]: 670000 M⁻¹ s⁻¹
IC50 (read off the curve) [11]: ~40 nM

The next lines start with the values.

fold increase in affinity against anti-CD25 H1L1 [1]: 2.4 fold
Kd [2]: 0.13 nM
koff [2]: 0.00026 s⁻¹
kon [2]: 2e+06 M⁻¹ s⁻¹
B1: anti-CD25 H1L1 single variant VH I69M (antibody, IgG1, V domains shown)
VH: QVQLVQSGAEVKKPGASVKVSCKASGYTFTSYRMHWVRQAPGQGLEWMGYINPSTGYTEYNQKFQGRVTMTADKSISTAYMELSRLRSDDTAVYYCARGGGVFDYWGQGTLVTVSS
VL: QIVLTQSPATLSLSPGERATLSCRASSSISYMHWFQQKPGQSPQLLIYTTSNLASGVPARFSGSGSGTDYTLTISSLQPEDFAVYYCHQRSTYPLTFGSGTKLEIK
notes: IgG1 format

fold difference in affinity against the chimeric antibody anti-VEGF H0L0 (VEGF [3]): ≤ 3 fold
Fold change in Kd vs. H0L0 (VEGF [4]): -2.7 fold
Kd (VEGF [4]): 3.8 nM
koff (VEGF [4]): 0.00028 s⁻¹
kon (VEGF [4]): 80000 M⁻¹ s⁻¹
Fold affinity change relative to H0L0 (VEGF [5]): -2.7 fold
B2: anti-VEGF H1.33L1.55 (Fab, V domains shown)
VH: QVQLVQSGSELKKPGASVKVSCKASGYTFTNYGMNWVRQAPGQGLEWMGWINTYTGNPTYAQGFTGRFVFSLDTSVSTAYLQISSLKAEDTAVYYCAKYPHYYGSSHWYFDVWGAGTLVTVSS
VL: DIQMTQSPSSLSASVGDRVTITCQASQDISNYLNWYQQKPGKAPKVLIYFASNLETGVPSRFSGSGSGTDYTLTISSLQPEDFATYYCQQYDNLPWTFGGGTKLEIK
notes: Fab format, purified by Ni-NTA chromatography
